In IntAct's records for PubMed 29150600:

Target: tlr4_human TLR4 (UniProt O00206)
Sequence (O00206 whole entry): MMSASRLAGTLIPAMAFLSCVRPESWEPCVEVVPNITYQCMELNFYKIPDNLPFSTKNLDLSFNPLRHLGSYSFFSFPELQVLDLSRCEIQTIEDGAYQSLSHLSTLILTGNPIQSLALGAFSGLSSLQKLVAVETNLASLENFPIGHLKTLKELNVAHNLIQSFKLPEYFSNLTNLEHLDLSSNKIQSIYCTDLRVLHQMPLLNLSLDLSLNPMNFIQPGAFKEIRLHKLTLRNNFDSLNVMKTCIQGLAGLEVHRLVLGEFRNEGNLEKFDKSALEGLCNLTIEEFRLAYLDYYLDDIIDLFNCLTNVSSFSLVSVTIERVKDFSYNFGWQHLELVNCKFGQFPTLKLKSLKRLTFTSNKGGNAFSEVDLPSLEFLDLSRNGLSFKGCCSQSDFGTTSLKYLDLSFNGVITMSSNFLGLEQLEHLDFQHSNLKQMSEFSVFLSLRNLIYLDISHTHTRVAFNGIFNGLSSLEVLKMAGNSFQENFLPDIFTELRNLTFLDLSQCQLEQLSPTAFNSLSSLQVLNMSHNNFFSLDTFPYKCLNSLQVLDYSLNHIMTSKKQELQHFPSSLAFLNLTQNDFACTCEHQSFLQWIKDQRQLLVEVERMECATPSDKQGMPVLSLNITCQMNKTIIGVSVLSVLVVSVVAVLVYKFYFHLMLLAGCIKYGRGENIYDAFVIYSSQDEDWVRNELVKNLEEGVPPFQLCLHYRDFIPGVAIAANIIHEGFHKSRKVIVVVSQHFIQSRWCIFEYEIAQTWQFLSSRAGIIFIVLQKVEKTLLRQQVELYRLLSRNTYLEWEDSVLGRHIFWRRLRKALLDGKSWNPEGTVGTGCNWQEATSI

Substance	effect of a mutation on the interaction
Tenascin (Homo sapiens), P24821 D2130P;I2133L;N2135S	decreasing interaction strength
Tenascin (Homo sapiens), P24821 K2096A;R2098A;K2100A;K2102A	decreasing interaction strength
Tenascin (Homo sapiens), P24821 K2100A;K2102A	decreasing interaction strength

Results, then the substance that gave them:

effect of a mutation on the interaction	Substance
decreasing interaction strength	Tenascin (Homo sapiens), P24821 K2096A;R2098A
decreasing interaction strength	Tenascin (Homo sapiens), P24821 K2096A;R2098A;K2100A;K2102A;D2130P;I2133L;N2135S
